Measurements taken from PMC5562754.

Assays:
[1] = molecular target: PorU (Porphyromonas gingivalis W50 (endogenous in OMVs)); test: native gel or EMSA; 2D BN-PAGE (Coomassie, spots identified by MS, densitometry) of large-scale glycerol gradient fractions F15-F17 of 1% DDM-solubilised OMV lysate of WT W50
[2] = molecular target: PorQ (strain ATCC 33277) (Porphyromonas gingivalis ATCC 33277 (endogenous in OMVs)); test: native gel or EMSA; settings: scale: PorZ per PorQ

## PorQ (natural protein)
[1]; scale: PorQ per PorU
  stoichiometry N: 1

## PorV (natural protein)
[1]; scale: PorV per PorU
  stoichiometry N: 3

## PorZ (natural protein)
[1]; scale: PorZ per PorU
  stoichiometry N: 1

## PorZ (strain ATCC 33277) (natural protein)
[2]
  stoichiometry N: 1
